According to patent US10429300B2, “Surface plasmon resonance approach to monitor protein-ligand interactions” (The Johns Hopkins University, priority 2015, dated 2019):

Key:
[1] = test system: rNav1.2a/Kv2.1 VSD II paddle chimera; assay: Two-electrode voltage-clamp, rNav1.2a/Kv2.1 VSD II paddle chimera in Xenopus oocytes; type: cell-based, rat
Description: The DNA sequence of rat (r)Nav1.2a (provided by A. Goldin, University of California, Irvine, Irvine, Calif.), rKv2.1 (provided by K. J. Swartz, National Institutes of Health), and the rNav1.2a/Kv2.1 VSD II or IV chimera was confirmed by automated DNA sequencing, and cRNA was synthesized using T7 polymerase (mMessage mMachine™ kit; Life Technologies) after linearizing the DNA with appropriate restriction enzymes. Channels were expressed in Xenopus oocytes (obtained from Xenopus 1) and studied after a 1-d incubation after cRNA injection (incubated at 17° C. in 96 mM NaCl, 2 mM KCl, 5 mM HEPES, 1 mM MgCl2, 1.8 mM CaCl2, and 50 μg/ml gentamycin, pH 7.6 with NaOH) using two-electrode voltage-clamp recording techniques (OC-725C; Warner Instruments) with a 150-μl recording chamber. Data were filtered at 4 kHz and digitized at 20 kHz using pClamp™ 10 software (Molecular Devices). Microelectrode resistances were 0.5-1.5 MΩ when filled with 3 M KCl. For Kv chimera channel experiments, the external recording solution contained (mM): 50 KCl, 50 NaCl, 5 HEPES, 1 MgCl2, and 0.3 CaCl2, pH 7.6 with NaOH. For rNav1.2a experiments, the external recording solution contained (mM): 100 NaCl, 5 HEPES, 1 MgCl2, and 1.8 CaCl2, pH 7.6 with NaOH. All experiments were performed at ˜22° C. Leak and background conductances, identified by blocking the channel with agitoxin-2 (provided by K. J. Swartz), have been subtracted for all of the Kv channel currents shown. […]. After the addition of the toxin to the recording chamber, the equilibration between the toxin and the channel was monitored using weak depolarizations elicited at 5- or 10-s (R1629A/L1630A mutant) intervals. Voltage-activation relationships were obtained by measuring tail currents for Kv channels or steady-state currents and calculating conductance for Nav channels, and a single Boltzmann function was fitted to the data according to I/Imax=[1c+cexp(−zF(Vc−cV1/2)/RT)]^−1, where I/Imax is the normalized tail-current amplitude, z is the equivalent charge, V1/2 is the half-activation voltage, F is Faraday's constant, R is the gas constant, and T is temperature in kelvin. For all channels, voltage-activation relationships were recorded in the absence and presence of toxin. The ratio of currents (I/I0) recorded in the presence (I) and absence (I0) of toxin was calculated for voltages typically ranging from −140 to 10 cmV, depending on the construct. […] The apparent equilibrium dissociation constant (apparent KD) for Kv channels was calculated according to KD=((1/(1c−cFu^1/4))c−c1)[toxin], assuming four independent toxin-binding sites per channel. Results are given as mean±SEM unless noted otherwise. Offline data analysis was performed using Clampfit 10™ (Molecular Devices), Origin 8.0™ (OriginLab), and Excel™ (Microsoft). […]

[2] = target: T1, rNav1.2a VSD II paddle peptide (V843A, SEQ ID NO: 2) (Rattus norvegicus, UniProt P04775, V843A); assay: SPR on immobilized rNav1.2a VSD II paddle peptide; type: binding; conditions: for SPR binding to VSD II paddle peptide: 100 nM toxin, 500 fmol peptide
T1 construct: purchased ProteoGenix; host or cells: chemical synthesis (Fmoc solid phase)
T1 sequence (P04775 832-856 V843A): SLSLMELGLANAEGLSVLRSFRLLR
Protocol: SPR experiments were performed at 25° C. on a Biacore™ T200 instrument (GE Healthcare) using 150 mM NaCl, 3 mM EDTA, 0.005% surfactant P20, and 10 mM HEPES-NaOH, pH 7.4, for the coupling protocol or 50 mM phosphate, pH 7.2, as running buffer. Neutravidin (Thermo Fisher Scientific) was immobilized on CM5 sensor chips (GE Healthcare) using an amine coupling chemistry. All chemicals were obtained from Sigma-Aldrich. […] In all SPR experiments, nonspecific binding obtained in the control flow cell was subtracted from the signal obtained in the experimental flow cell. For qualitative binding analysis, toxins (100 nM in running buffer containing 0.1% BSA) were injected at a flow rate of 20 μl/min over 2 min. […] In between injections, the surface of the sensor chip was regenerated by injecting 1 M NaCl (15 s at 30 l/min). The bulk signal caused by refractive index differences between the flow buffer and the buffer containing the analyte was systematically excluded from the data-fitting process. It is worth noting that isolating a paddle motif (ligand) can induce conformational changes that can affect toxin (analyte) efficacy. […] Sensorgrams can reveal such ligand heterogeneity by displaying biphasic dissociation curves that cannot be fitted with the frequently used Langmuir model, which assumes a 1:1 stoichiometry of analyte to ligand. To account for a possible heterogeneity of surface sites, we calculated the rate constants and affinity equilibrium dissociation constants (KD) for AaHII by a fit to a heterogeneous ligand model incorporated into the Biacore T200 Evaluation™ software (v1.0). This model assumes the presence of two sites on the ligand that can bind analyte and can be described by these equations in which A represents the analyte and B1/B2 represents the heterogeneous ligand:
(A) Shown are the CD spectra of the rNav1.2a VSD II and IV paddle peptides used in this paper. […] (B) Representative association and dissociation kinetic curves obtained using SPR after the application of varying concentrations of AaHII (15-2,000 nM) over a sensor chip to which 50 fmol of the rNav1.2a VSD IV paddle peptide was linked. Toxin was applied after obtaining a steady baseline. Colored traces represent toxin binding obtained after subtraction of the signal from the control flow cell. […] Toxin concentrations are indicated on the right in a shade of gray corresponding to the sensorgram. (C) Representative SPR traces after the application of 100 nM KTX, AaHI, AaHII, LqqV, BomIV, TsVII, and CssIV over a sensor chip to which the rNav1.2a VSD II (left) or IV (right) paddle peptide (500 fmol) was linked. Toxin was applied after obtaining a steady baseline. (D) Binding capacities of 100 nM α-scorpion toxins AaHI, AaHII, LqqV, the α-like scorpion toxin BomIV, and the β-scorpion toxins TsVII and CssIV to the VSD II and IV paddle motifs using SPR (error bars represent±SEM). Y-axis represents the maximum RUs obtained after toxin application.
Next, the VSD IV peptide was fixed on SPR sensor chips by adding a K-linked biotin group to the C terminus, resulting in a 32-amino acid peptide altogether (SEQ ID NO: 4 which is mutated SEQ ID NO: 3 of FIG. 2A).

[3] = test system: rNav1.2a/Kv2.1 VSD IV chimera containing the R1629A/L1630A substitutions; type: cell-based, rat
Chain of rNav1.2a/Kv2.1 VSD IV chimera containing the R1629A/L1630A substitutions (P04775 1605-1636 R1629A/L1630A limits assumed): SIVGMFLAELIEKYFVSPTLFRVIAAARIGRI
Description: The DNA sequence of rat (r)Nav1.2a (provided by A. Goldin, University of California, Irvine, Irvine, Calif.), rKv2.1 (provided by K. J. Swartz, National Institutes of Health), and the rNav1.2a/Kv2.1 VSD II or IV chimera was confirmed by automated DNA sequencing, and cRNA was synthesized using T7 polymerase (mMessage mMachine™ kit; Life Technologies) after linearizing the DNA with appropriate restriction enzymes. Channels were expressed in Xenopus oocytes (obtained from Xenopus 1) and studied after a 1-d incubation after cRNA injection (incubated at 17° C. in 96 mM NaCl, 2 mM KCl, 5 mM HEPES, 1 mM MgCl2, 1.8 mM CaCl2, and 50 μg/ml gentamycin, pH 7.6 with NaOH) using two-electrode voltage-clamp recording techniques (OC-725C; Warner Instruments) with a 150-μl recording chamber. Data were filtered at 4 kHz and digitized at 20 kHz using pClamp™ 10 software (Molecular Devices). […] For all channels, voltage-activation relationships were recorded in the absence and presence of toxin. The ratio of currents (I/I0) recorded in the presence (I) and absence (I0) of toxin was calculated for voltages typically ranging from −140 to 10 cmV, depending on the construct. […] The apparent equilibrium dissociation constant (apparent KD) for Kv channels was calculated according to KD=((1/(1c−cFu^1/4))c−c1)[toxin], assuming four independent toxin-binding sites per channel. […]

Chain of rNav1.2a/Kv2.1 VSD II paddle chimera (P04775 832-856 limits assumed, stated change not applied): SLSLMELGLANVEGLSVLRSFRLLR

B1: CssIV: β-scorpion toxin from Centruroides suffusus suffusus (protein)
chain: KEGYLVNSYTGCKFECFKLGDNDYCLRECRQQYGKGSGGYCYAFGCWCTHLYEQAVVWPLPNKTCN
concentration required to begin inhibiting the chimera [1]: 1 µM | depolarizing shift in V1/2 ([1]; 1 μM toxin, Boltzmann fit, n=3): ~14 mV | V1/2 in the presence of toxin ([1]; 1 μM toxin, control 33±2 mV): 47±1 mV | SPR binding to VSD II paddle peptide [2]: no RUs could be detected

B2: AaHII: Nav channel-selective α-scorpion toxin from Androctonus australis hector; model toxin (protein)
chain: VKDGYIVDDVNCTYFCGRNAYCNEECTKLKGESGYCQWASPYGNACYCYKLPDHVRTKGPGRCH
inhibition of the double mutant channel ([3]; 100 nM toxin): strongly inhibits | Kd ([3]; read-out: apparent KD): 193 ± 42 nM | interaction with VSD II paddle chimera [1]: no interaction was observed | SPR binding to VSD II paddle peptide [2]: a response was not obtained | SPR effect on VSD II paddle motif ([2]; up to 20 μM toxin): not noticed
